Assay results as given in paper PMC9452514, “Coiled-coil structure of meiosis protein TEX12 and conformational regulation by its C-terminal tip” (Communications Biology, 2022).

Columns and labels:
[1] = target: the molecule itself; assay: SEC-MALS; Superdex 200 Increase 10/300 GL, 20 mM Tris pH 8.0, 150 mM KCl, 2 mM DTT; wild-type and FFV at >10 mg/ml and at 1 mg/ml; species stable across 1-10 mg/ml
[2] = target: the molecule itself; assay: SEC-SAXS; Superdex 200 Increase 10/300 GL, 20 mM Tris pH 8.0, 150 mM KCl; samples at >5 mg/ml; beamline B21, Diamond Light Source
[3] = target: the molecule itself; assay: crystal structure; TEX12 FFV at 43 mg/ml, sitting drops, 200 mM calcium acetate, 40% MPD, 20 °C; C222_(1), 1.45 Å, two chains per asymmetric unit
[4] = target: the molecule itself; assay: SEC-MALS; Superdex 200 Increase 10/300 GL, 20 mM Tris pH 8.0, 150 mM KCl, 2 mM DTT; ΔCtip and LFIL loaded at 1 mg/ml after stepwise dilution
[5] = target: the molecule itself; assay: SEC-SAXS; Superdex 200 Increase 10/300 GL, 20 mM Tris pH 8.0, 150 mM KCl; ΔCtip and LFIL analysed at ~30 mg/ml to minimise dissociation

Protein | stoichiometry N [1] | stoichiometry N [2] | stoichiometry N [3] | stoichiometry N [4] | stoichiometry N [5]
TEX12 core (amino-acids 49–123) wild-type (domain or fragment, human, UniProt Q9BXU0 49-123, looked up, TEX12, human, structural core, amino-acids 49-123; expressed from pMAT11 as a TEV-cleavable His-MBP fusion; also called TEX12 wild-type; WT; source: E. coli BL21 (DE3), purified (Ni-NTA, amylose, HiTrap Q HP, TEV cleavage, SEC); not shown: His, N-terminal, cleaved; MBP, N-terminal, cleaved) KDEALEKDLNDVSKEINLMLSTYAKLLSERAAVDASYIDEIDELFKEANAIENFLIQKREFLRQRFTVIANTLHR | 2 | – | – | – | –
TEX12 core (amino-acids 49–123) F102A F109E V116A (FFV) (domain or fragment, human, UniProt Q9BXU0 49-123, looked up, TEX12, human, structural core, amino-acids 49-123, with mutations of solvent-exposed residues; both crystal forms (6HK9, 6R2F) show dimers; The introduction gives the FFV of the earlier work as F102A F109A V116A; also called TEX12 FFV; TEX12 (49–123) FFV; source: E. coli BL21 (DE3), purified (Ni-NTA, amylose, HiTrap Q HP, TEV cleavage, SEC); not shown: His, N-terminal, cleaved; MBP, N-terminal, …) KDEALEKDLNDVSKEINLMLSTYAKLLSERAAVDASYIDEIDELFKEANAIENALIQKREELRQRFTAIANTLHR | – | 4 | 2 | – | –
TEX12 ΔCtip (amino-acids 49–113) (domain or fragment, human, UniProt Q9BXU0 49-113, looked up, TEX12, human, core without the C-terminal tip (deletion of amino-acids 114-123), amino-acids 49-113; Tetramer in the crystal (6HK8); in solution tetramers in concentration-dependent equilibrium with dimers; also called TEX12 ΔCtip (49–113); source: E. coli BL21 (DE3), purified (Ni-NTA, amylose, HiTrap Q HP, TEV cleavage, SEC); not shown: His, N-terminal, cleaved; MBP, N-terminal, cleaved) KDEALEKDLNDVSKEINLMLSTYAKLLSERAAVDASYIDEIDELFKEANAIENFLIQKREFLRQR | – | – | – | 2 | 4
TEX12 core (amino-acids 49–123) L110E F114E I117E L121E (LFIL) (domain or fragment, human, UniProt Q9BXU0 49-123, looked up, TEX12, human, structural core, amino-acids 49-123, with glutamate mutations of the Ctip heptad amino-acids; In solution tetramers in concentration-dependent equilibrium with dimers; also called TEX12 LFIL; source: E. coli BL21 (DE3), purified (Ni-NTA, amylose, HiTrap Q HP, TEV cleavage, SEC); not shown: His, N-terminal, cleaved; MBP, N-terminal, cleaved) KDEALEKDLNDVSKEINLMLSTYAKLLSERAAVDASYIDEIDELFKEANAIENFLIQKREFERQRETVEANTEHR | – | – | – | 2 | 4
